To fix the notation:
T1: Bcat-Halo (UniProt P35222 1-781)
T1 sequence (looked up): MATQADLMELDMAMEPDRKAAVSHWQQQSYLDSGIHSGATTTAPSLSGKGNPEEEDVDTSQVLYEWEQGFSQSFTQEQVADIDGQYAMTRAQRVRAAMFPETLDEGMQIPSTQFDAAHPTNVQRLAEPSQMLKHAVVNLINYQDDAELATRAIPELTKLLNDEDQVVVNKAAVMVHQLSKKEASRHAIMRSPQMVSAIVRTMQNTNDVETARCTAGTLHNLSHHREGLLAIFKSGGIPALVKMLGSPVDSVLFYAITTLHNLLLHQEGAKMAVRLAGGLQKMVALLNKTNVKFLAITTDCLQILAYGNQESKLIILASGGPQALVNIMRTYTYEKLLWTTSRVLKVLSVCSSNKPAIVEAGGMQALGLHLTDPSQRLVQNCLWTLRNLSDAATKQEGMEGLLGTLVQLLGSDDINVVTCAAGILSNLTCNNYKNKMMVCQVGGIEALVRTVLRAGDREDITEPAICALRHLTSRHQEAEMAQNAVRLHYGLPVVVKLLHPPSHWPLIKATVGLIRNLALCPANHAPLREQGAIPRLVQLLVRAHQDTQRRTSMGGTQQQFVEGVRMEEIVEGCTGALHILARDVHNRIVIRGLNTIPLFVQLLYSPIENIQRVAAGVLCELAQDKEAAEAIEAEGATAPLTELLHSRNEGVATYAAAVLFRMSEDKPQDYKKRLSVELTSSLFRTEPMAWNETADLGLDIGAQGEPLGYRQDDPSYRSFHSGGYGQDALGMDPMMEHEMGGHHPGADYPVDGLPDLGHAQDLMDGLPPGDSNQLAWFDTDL

T2: beta-catenin, full-length (Uniprot ID P35222) (Homo sapiens (Human), UniProt P35222 2-781)
T2 construct: tags are not described; also called bCat; B-Catenin
T2 sequence: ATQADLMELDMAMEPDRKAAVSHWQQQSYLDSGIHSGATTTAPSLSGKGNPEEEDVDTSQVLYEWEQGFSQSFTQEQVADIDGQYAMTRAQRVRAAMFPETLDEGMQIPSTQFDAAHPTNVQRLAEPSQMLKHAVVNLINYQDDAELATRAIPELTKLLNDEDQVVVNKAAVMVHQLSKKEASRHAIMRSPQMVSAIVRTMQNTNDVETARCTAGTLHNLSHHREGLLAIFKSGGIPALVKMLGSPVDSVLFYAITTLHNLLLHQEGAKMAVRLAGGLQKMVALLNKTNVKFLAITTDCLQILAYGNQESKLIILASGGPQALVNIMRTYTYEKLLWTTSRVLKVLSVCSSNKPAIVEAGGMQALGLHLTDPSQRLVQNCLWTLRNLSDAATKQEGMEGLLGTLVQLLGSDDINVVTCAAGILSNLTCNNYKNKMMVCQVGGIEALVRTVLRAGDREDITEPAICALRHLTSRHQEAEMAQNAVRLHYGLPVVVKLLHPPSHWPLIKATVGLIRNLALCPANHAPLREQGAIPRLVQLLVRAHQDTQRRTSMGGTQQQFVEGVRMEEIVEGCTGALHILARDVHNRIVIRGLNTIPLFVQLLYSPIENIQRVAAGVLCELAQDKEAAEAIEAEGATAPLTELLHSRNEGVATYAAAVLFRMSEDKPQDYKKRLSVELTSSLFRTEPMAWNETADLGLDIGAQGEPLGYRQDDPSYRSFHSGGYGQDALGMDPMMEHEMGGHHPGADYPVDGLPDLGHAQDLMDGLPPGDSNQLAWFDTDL

B1: I-291: Ac-PL3-Asp-Ala-B5-Asp-Asp-Ala-Ala-Phe-Val-S8-Phe-Trp-Ala-NH2 (peptide)
peptide: XDAXDDAAFVXFWA
modifications: not fully specified; N-terminal Ac; PL3 at 1, B5 at 4, S8 at 11 (olefin-metathesis staples 1-4 and 4-11); C-terminal amide
notes: Stapled (stitched) peptide
B2: I-292: Ac-PL3-Asp-Ala-B5-Asp-Asp-Ala-Ala-Phe-Val-S8-Phe-Trp-Ala-NH2 (peptide)
peptide: XDAXDDAAFVXFWA
modifications: not fully specified; N-terminal Ac; PL3 at 1, B5 at 4, S8 at 11 (olefin-metathesis staples 1-4 and 4-11); C-terminal amide
notes: Stapled (stitched) peptide
B3: I-286: Ac-PL3-Asp-Ala-B5-Asp-Asp-Ala-Ala-Phe-Ala-S8-Phe-Trp-Ala-NH2 (peptide)
peptide: XDAXDDAAFAXFWA
modifications: not fully specified; N-terminal Ac; PL3 at 1, B5 at 4, S8 at 11 (olefin-metathesis staples 1-4 and 4-11); C-terminal amide
notes: Stapled (stitched) peptide
B4: I-285: Ac-PL3-Asp-Ala-B5-Asp-Asp-Ala-Ala-Phe-Val-S8-His-Trp-Gln-NH2 (peptide)
peptide: XDAXDDAAFVXHWQ
modifications: not fully specified; N-terminal Ac; PL3 at 1, B5 at 4, S8 at 11 (olefin-metathesis staples 1-4 and 4-11); C-terminal amide
notes: Stapled (stitched) peptide
B5: I-289: Ac-PL3-Asp-Ala-B5-Asp-Asp-Ala-Ala-Phe-Val-S8-Phe-Trp-NH2 (peptide)
peptide: XDAXDDAAFVXFW
modifications: not fully specified; N-terminal Ac; PL3 at 1, B5 at 4, S8 at 11 (olefin-metathesis staples 1-4 and 4-11); C-terminal amide
notes: Stapled (stitched) peptide
B6: I-290: Ac-PL3-Asp-Ala-B5-Asp-Asp-Ala-Ala-Phe-Val-S8-Phe-Trp-NH2 (peptide)
peptide: XDAXDDAAFVXFW
modifications: not fully specified; N-terminal Ac; PL3 at 1, B5 at 4, S8 at 11 (olefin-metathesis staples 1-4 and 4-11); C-terminal amide
notes: Stapled (stitched) peptide

Starred links: 1 amine or outer side, 2 acyl side, 3 side chain; linkers in the order of their positions; H or OH if unused. Positions of bridges follow the written chain, without caps; N, C: chain ends. Non-standard residues stand in square brackets, D forms with d. Primed or numbered codes have the meaning given here. B5(17) = 2,2-bis(4-pentenyl)glycine = 2-amino-2-(pent-4-en-1-yl)hept-6-enoic acid, stitching residue, C=CCCCC(CCCC=C)(N[*:1])C(=O)[*:2]; B5(4) = 2,2-bis(4-pentenyl)glycine = 2-amino-2-(pent-4-en-1-yl)hept-6-enoic acid (stitching residue), C=CCCCC(CCCC=C)(N[*:1])C(=O)[*:2]; PyrS2 = (S)-3-amino-1-((pent-4-en-1-yloxy)carbonyl)pyrrolidine-3-carboxylic acid, C=CCCCOC(=O)N1CC[C@@](N[*:1])(C(=O)[*:2])C1; B5(28) = 2,2-bis(4-pentenyl)glycine, C=CCCCC(CCCC=C)(N[*:1])C(=O)[*:2]; Phe(3-COOH) = N[C@@H](Cc1cccc(C(=O)O)c1)C(=O)O; 2F3MeF = Cc1cccc(C[C@H](N[*:1])C(=O)[*:2])c1F; Phe(3,4-F2) = N[C@@H](Cc1ccc(F)c(F)c1)C(=O)O; Phe(3-F) = N[C@@H](Cc1cccc(F)c1)C(=O)O; Phe(4-F) = N[C@@H](Cc1ccc(F)cc1)C(=O)O; 1Nal = N[C@@H](Cc1cccc2ccccc12)C(=O)O; Bta = N[C@@H](Cc1csc2ccccc12)C(=O)O; αAllylPro = C=CC[C@@]1(C(=O)O)CCCN1; isoindolineGlnR = not defined here; tBuAla = CC(C)(C)C[C@H](N)C(=O)O; 2Pal = N[C@@H](Cc1ccccn1)C(=O)O; 3Pal = N[C@@H](Cc1cccnc1)C(=O)O; S8 = C=CCCCCCC[C@](C)(N)C(=O)O

For one test, the target named is T1, Bcat-Halo. Nature of the test: cell-based or functional assay.
For Ac-[αAllylPro]D[tBuAla][B5(28)]D[Phe(3-COOH)][isoindolineGlnR]AFL[PyrS2][2F3MeF][Bta]A-NH2 (staple 1-4, 4-11; reading uncertain) [I-2320], the “NanoBRET Abs IC50” value worked out at 2.7 µM.

The next test addresses T2, beta-catenin, full-length (Uniprot ID …). Briefly: fluorescence polarization competition, displacement of 5FAM-TCF4 10-53 from full-length beta-catenin. As for the experimental part:
The plate was incubated protected from light for 60 minutes at 20° C. prior to read. Reads were performed on a CLARIOstar plate reader (BMG Labtech) in duplicate, and data were fitted to a 1:1 binding model with hill slope using an in-house script. All provided concentrations are final concentrations.
On the technique in general: In fluorescence polarisation assays a small probe gives low polarisation when free and higher when bound to something large.
By IC50 is commonly meant the concentration that inhibits the measured activity by half. A low value points to greater potency. For the molecule Ac-[αAllylPro]DA[B5(4)]DDAAFV[S8][1Nal]WQ-NH2 (staple 1-4, 4-11; also: earlier-eluting HPLC staple isomer, Stapled (stitched) peptide) [I-275: Ac-PL3-Asp-Ala-B5-Asp-Asp-Ala-Ala-Phe-Val-S8-1NapA-Trp-Gln-NH2], the IC50 was determined as 5 µM.

For Ac-[αAllylPro]DA[B5(4)]DDAA[Phe(3-F)]V[S8]FWQ-NH2 (staple 1-4, 4-11; also: staple isomer composition, later HPLC peak, Stapled (stitched) peptide) [I-265: Ac-PL3-Asp-Ala-B5-Asp-Asp-Ala-Ala-3FF-Val-S8-Phe-Trp-Gln-NH2], the IC50 is 3.76 µM. Same read-out and setting: for B1 the value was 3.13 µM. Still for that read-out and setting: under B2 stands 1.87 µM; under B3, 4.48 µM. Same read-out and setting: for B4 the value was 5 µM; for B5, 5 µM; for Ac-[αAllylPro]DA[B5(17)]DDAA[Phe(4-F)]V[S8]FWQ-NH2 (staple 1-4, 4-11, Stapled (stitched) peptide) [I-266: Ac-PL3-Asp-Ala-B5-Asp-Asp-Ala-Ala-4FF-Val-S8-Phe-Trp-Gln-NH2], 5 µM. The molecule Ac-[αAllylPro]DA[B5(17)]D[2Pal]AAFV[S8]FWQ-NH2 (staple 1-4, 4-11, Stapled (stitched) peptide) [I-270: Ac-PL3-Asp-Ala-B5-Asp-2PyrA-Ala-Ala-Phe-Val-S8-Phe-Trp-Gln-NH2] yielded an IC50 of 5 µM. As for Ac-[αAllylPro]DA[B5(17)]DDAA[Phe(3,4-F2)]V[S8]FWQ-NH2 (staple 1-4, 4-11, Stapled (stitched) peptide) [I-267: Ac-PL3-Asp-Ala-B5-Asp-Asp-Ala-Ala-34FF-Val-S8-Phe-Trp-Gln-NH2], the IC50 was 5 µM. On the same count and under the same terms, under B6 stands 3.29 µM. Regarding Ac-[αAllylPro]DA[B5(17)]D[3Pal]AAFV[S8]FWQ-NH2 (staple 1-4, 4-11, Stapled (stitched) peptide) [I-271: Ac-PL3-Asp-Ala-B5-Asp-3PyrA-Ala-Ala-Phe-Val-S8-Phe-Trp-Gln-NH2], the IC50 came to 5 µM. Ac-[αAllylPro]DA[B5(4)]DDAAFV[S8][1Nal]WQ-NH2 (staple 1-4, 4-11; also: later-eluting HPLC staple isomer, Stapled (stitched) peptide) [I-276: Ac-PL3-Asp-Ala-B5-Asp-Asp-Ala-Ala-Phe-Val-S8-1NapA-Trp-Gln-NH2] came in with an IC50 of 3.43 µM.

Source of the values: patent US20240116985A1 (published 2024).
